According to US12202861B2, “Inducible, tunable, and multiplex human gene regulation using CRISPR-Cpf1” (The General Hospital Corporation, priority 2017, dated 2025):

What was measured:
Assay type in all cases: cell-based, human
AR = assay: RT-qPCR activation of endogenous AR gene promoter in HEK293 cells; details: single crRNA
Protocol: (§1) FIGS. 1A-1E. Targeted human endogenous gene regulation using individual crRNAs with dLbCpf1-based activators • (A) Schematic showing direct dLbCpf1-VPR and dLbCpf-p65 activator fusion proteins. • (B) Activities of dLbCpf1-p65 or dLbCpf1-VPR using single crRNAs at three endogenous human genes (HBB, AR, and NPY1R) in human HEK293 cells. Relative activation of the indicated gene promoters was measured by RT-qPCR. Three separate individual crRNAs were targeted within promoter sequence 1 kb upstream of the transcription start site for each gene. Relative mRNA expression is calculated by comparison to the control sample in which no crRNA is expressed. (C) Analysis of various crRNAs targeted to the human CD5 and CD22 promoters. 32 crRNAs (16 for each gene) were designed to target sites located within promoter sequences 1 kb upstream or 500 bps downstream of the TSS of each gene. Repetitive sequences were not targeted. After 72 hours post-transfection, cells were stained with fluorescently labeled antibody for CD5 or CD22 protein and fluorescent-positive cells were quantified by flow cytometry. Error bars represent s.e.m. for three biological replicates. […] (D) Schematic illustrating drug-inducible bi-partite dLbCpf1-based activator fusion proteins. dLbCpf1 is fused to one to four DmrA domains and VPR or p65 is fused to a DmrC domain. Because DmrA and DmrC interact only in the presence of an A/C-heterodimerizer drug (red diamond), the bi-partite activator is only reconstituted in the presence of the drug. (E) Activities of drug-inducible bi-partite dLbCpf1-based activators using single crRNAs at three endogenous human genes (HBB, AR, and NPY1R) in human HEK293 cells. Relative activation of the indicated gene promoters was measured by RT-qPCR. […] Data shown in (B) and (E) represent three biological independent replicates and error bars indicate standard deviation (SD) of three technical replicates.
(A) Schematic of an expression cassette designed to express multiple gRNAs encoded on a single transcript. The arrows indicate cleavage sites being processed by the RNase activity of dLbCpf1. (B) Schematic illustrating multiplex expression of three crRNAs each targeted to a different endogenous gene promoter in a single cell. […] Transcripts were measured in HEK293 cells using RT-qPCR with relative mRNA expression calculated by comparison to the control sample in which no crRNA is expressed. […] RNA expression was measured by RT-qPCR and relative expression shown was calculated by comparison to a control sample in which no crRNA is expressed. […] Transcripts were measured in HEK293 cells using RT-qPCR with relative mRNA expression calculated by comparison to the control sample in which no crRNA is expressed. […]

HBB [1] = assay: RT-qPCR activation of HBB in U2OS cells; details: MST crRNAs and single crRNAs
Excerpt: (A) Schematic of an expression cassette designed to express multiple gRNAs encoded on a single transcript. The arrows indicate cleavage sites being processed by the RNase activity of dLbCpf1. (B) Schematic illustrating multiplex expression of three crRNAs each targeted to a different endogenous gene promoter in a single cell. (C) Simultaneous activation of three endogenous human genes using crRNAs expressed from a multiplex transcript or from individual transcripts with dLbCpf1-VPR direct fusions (left panel), dLbCpf1-DmrA(×4) and DmrC-VPR fusions (middle panel), and dLbCpf1-DmrA(×4) and DmrC-p65 fusions (right panel). Transcripts were measured in HEK293 cells using RT-qPCR with relative mRNA expression calculated by comparison to the control sample in which no crRNA is expressed. […] RNA expression was measured by RT-qPCR and relative expression shown was calculated by comparison to a control sample in which no crRNA is expressed. […] Transcripts were measured in HEK293 cells using RT-qPCR with relative mRNA expression calculated by comparison to the control sample in which no crRNA is expressed. […] Transcripts were measured in HEK293 cells using RT-qPCR with relative mRNA expression calculated by comparison to the control sample in which no crRNA is expressed. […] Cells were collected at various time points and relative mRNA expression levels were measured by RT-qPCR compared to a negative control. […]

NPY1R = assay: RT-qPCR activation of endogenous NPY1R gene promoter in HEK293 cells; details: single crRNA
Protocol: as §1
(§2) (A) Schematic of an expression cassette designed to express multiple gRNAs encoded on a single transcript. The arrows indicate cleavage sites being processed by the RNase activity of dLbCpf1. (B) Schematic illustrating multiplex expression of three crRNAs each targeted to a different endogenous gene promoter in a single cell. (C) Simultaneous activation of three endogenous human genes using crRNAs expressed from a multiplex transcript or from individual transcripts with dLbCpf1-VPR direct fusions (left panel), dLbCpf1-DmrA(×4) and DmrC-VPR fusions (middle panel), and dLbCpf1-DmrA(×4) and DmrC-p65 fusions (right panel). Transcripts were measured in HEK293 cells using RT-qPCR with relative mRNA expression calculated by comparison to the control sample in which no crRNA is expressed. (D) Activities of MST crRNA with different dLbCpf1-based activators in human U20S cells. Graphs showing activation of three endogenous human genes with dLbCpf1-VPR direct fusions, dLbCpf1-DmrA(×4) and DmrC-p65 fusions, and dLbCpf1-DmrA(×4) and DmrC-VPR fusions and crRNAs expressed from a multiplex single transcript (MST) or from transcripts encoding a single crRNA. RNA expression was measured by RT-qPCR and relative expression shown was calculated by comparison to a control sample in which no crRNA is expressed. (E) Schematic illustrating multiplex expression of three crRNAs each targeted to the same endogenous gene promoter in the same cell. (F) Activities of direct dLbCpf1-p65 or dLbCpf1-VPR fusions with sets of three crRNAs expressed from a multiplex transcript or from individual transcripts on the HBB, AR, or NPY1R endogenous gene promoters. Transcripts were measured in HEK293 cells using RT-qPCR with relative mRNA expression calculated by comparison to the control sample in which no crRNA is expressed. (G) Activities of dLbCpf1-DmrA(×4) and DmrC-VPR fusions or with dLbCpf1-DmrA(×4) and DmrC-p65 fusions with sets of three crRNAs expressed from a multiplex transcript or from individual transcripts on the HBB, AR, or NPY1R endogenous gene promoters. […]

HBB [2] = assay: RT-qPCR activation of endogenous HBB gene promoter in HEK293 cells; details: single crRNA
Protocol: as §1, §2

[3] = bi-partite with dLbCpf1-DmrA fusions
[4] = bi-partite with dLbCpf1-DmrA fusions, A/C heterodimerizer
[5] = bi-partite, with dLbCpf1 fusions harboring two, three or four DmrA domains

B1: DmrC-p65: CAG-DmrC-NLS-FLAG-P65; DmrC dimerization domain fused to p65 activation domain (SEQ ID NO: 50) (protein)
chain: MGSRILWHEMWHEGLEEASRLYFGERNVKGMFEVLEPLHAMMERGPQTLKETSFNQAYGRDLMEAQEWCRKYMKSGNVKDLLQAWDLYYHVFRRISKGGGSPKKKRKVSSDYKDHDGDYKDHDIDYKDDDDKAAGGGGSGSEASGSGRADALDDFDLDMLGSDALDDFDLDMLGSDALDDFDLDMLGSDALDDFDLDMLINSRSSGSPKKKRKVGSQYLPDTDDRHRIEEKRKRTYETFKSIMKKSPFSGPTDPRPPPRRIAVPSRSSASVPKPAPQPYPFTSSLSTINYDEFPTMVFPSGQISQASALAPAPPQVLPQAPAPAPAPAMVSALAQAPAPVPVLAPGPPQAVAPPAPKPTQAGEGTLSEALLQLQFDDEDLGALLGNSTDPAVFTDLASVDNSEFQQLLNQGIPVAPHTTEPMLMEYPEAITRLVTGAQRPPDPAPAPLGAPGLPNGLLSGDEDFSSIADMDFSALLGSGSGSRDSREGMFLPKPEAGSAISDVFEGREVCQPKRIRPFHPPGSPWANRPLPASLAPTPTGPVHEPVGSLTPAPVPQPLDPAPAVTPEASHLLEDPDEETSQAVKALREMADTVIPQKEEAAICGQMDLSHPPPRGHLDELTTTLESMTEDLNLDSPLTPELNEILDTFLNDECLLHAMHISTGLSIFDTSLF
modifications: misc_feature 1..2016 MMW948: CAG-DmrC-NLS-FLAG-VPR
dependence of maximal activation on A/C heterodimerizer drug (AR; [3]): dependent on the presence of A/C heterodimerizer drug | fold activation of transcription (AR; [4]): ~25 fold | activation of transcription (AR; [5]): could robustly activate transcription | gene activation (relative RNA expression) (HBB [1]): even greater than in HEK293s | dependence of maximal activation on A/C heterodimerizer drug (NPY1R; [3]): dependent on the presence of A/C heterodimerizer drug | level of activation somewhat less than that obtained with DmrC-VPR (NPY1R; [3]): ~30% | fold activation of transcription (NPY1R; [4]): ~10 fold | activation of transcription (NPY1R; [5]): could robustly activate transcription | dependence of maximal activation on A/C heterodimerizer drug (HBB [2]; [3]): dependent on the presence of A/C heterodimerizer drug | level of activation somewhat less than that obtained with DmrC-VPR (HBB [2]; [3]): ~50% | fold activation of transcription (HBB [2]; [4]): ~20 fold | activation of transcription (HBB [2]; [5]): could robustly activate transcription
